Assay [1] deals with T1, 12 AA stub region peptide LVLDLSMQEALS (human).
T1 construct: free N-terminus; also called 12 AA Peptide
T1 peptide: LVLDLSMQEALS
Kind of assay: SPR. For orientation: SPR reads the build-up and loss of mass on a sensor chip optically.

Assay [2] has as its target T2, 14 AA stub (a.a. 290-303 of SEQ ID NO: 247) (human).
T2 peptide: GYLVLDLSMQEALS
The assay is described as follows: SPR, mAb captured, peptide injected. As for the experimental part:
(§1) The binding was assessed by SPR. Briefly, GAH-Fc was used to capture mAbs on C4 sensor chip followed by antigen injection starting at 30 nM (14 amino acid stub), 100 nM (10-13 amino acid stubs), or 1000 nM (7-9 amino acid stubs) progressing in a 3-fold dilution series in single cycle kinetics mode. HBSP+0.01% BSA was used in the assay.

The target of assay [3] is T3, 13 AA stub (a.a. 291-303 of SEQ ID NO: 247) (human).
T3 peptide: YLVLDLSMQEALS
Kind of assay: SPR, mAb captured, peptide injected. As for the experimental part:
as §1

Assay [4] concerns the target T4, 11 AA stub (a.a. 293-303 of SEQ ID NO: 247) (human).
T4 peptide: VLDLSMQEALS
The assay is described as follows: SPR, mAb captured, peptide injected. As for the experimental part:
as §1

Assay [5] has as its target T5, 10 AA stub (a.a. 294-303 of SEQ ID NO: 247) (human).
T5 peptide: LDLSMQEALS
The assay is described as follows: SPR, mAb captured, peptide injected. The procedure:
as §1

In assay [6] the target is T6, 9 AA stub (a.a. 295-303 of SEQ ID NO: 247) (human).
T6 peptide: DLSMQEALS
The assay is described as follows: SPR, mAb captured, peptide injected. As for the experimental part: as §1

The target of assay [7] is T7, 7 AA stub (a.a. 297-303 of SEQ ID NO: 247) (human).
T7 peptide: SMQEALS
Kind of assay: SPR, mAb captured, peptide injected. As for the experimental part: as §1

In assay [8] the target is T8, MSNW10, recombinant full length human MSLN (human, UniProt Q13421 296-598).
T8 construct: also called MSNW10.002; FL-MSLN
Kind of assay: SPR, recombinant full-length human MSLN.

The target of assay [9] is T9, MSNW11, recombinant soluble (shed) MSLN lacking the C-terminal 7 AAs (human, UniProt Q13421 296-591).
T9 construct: domain: soluble MSLN lacking the C-terminal 7 AAs; also called MSNW11.002; soluble MSLN
Kind of assay: H838 cell binding with shed MSLN (MSNW11) added. The text has this: (§2) Table 16 lists the immunization campaigns, antigens used, and number of clones returned at each stage of screening. Clones from which antibody sequences were successfully recovered were first screened for binding to recombinant full length human MSLN (MSNW10) and H838 cells that express MSLN on the cell surface. Binders were further screened for binding to cells in the presence of recombinant soluble MSLN lacking the C-terminal 7 AAs (MSNW11). This form of recombinant MSLN represented the product of cleavage at the closest cleavage site to the C-terminus known at the time, therefore, it theoretically represented the longest form of shed MSLN. The final concentration of shed MSLN in the assays was 100 nM.

In assay [10] the target is T10, 8 AA stub (a.a. 296-303 of SEQ ID NO: 247) (human).
T10 construct: also called 8 AA Peptide; peptide of the last 8 C-terminal amino acids
T10 peptide: LSMQEALS
The assay is described as follows: competition of OVCAR8 cell binding by the peptide.

Assay [11] addresses T11, human MSLN on the cell surface (human, UniProt Q13421 296-598).
T11 construct: on cells stands the processed GPI-anchored 40 kDa MSLN; also called membrane MSLN; MSLN on H838, OVCAR-8 (OVCAR8), OVCAR-8 K1/C8, SK-OV-3 cells
The assay is described as follows: high content imaging, surface staining of OVCAR8 cells. The procedure: OVCAR8 cells were cultured in RPMI 1640 medium supplemented with 10% FCS, 1% L-glutamine and 1% Gentamycin and seeded in Greiner CELLSTAR plate one day before experiment. 24 h after seeding, antibody mixture was prepared by diluting MSLN and control antibodies in Table 21 in full media containing CellMask™ Deep Red Plasma Membrane Stain (ThermoFisher, C10046) in 12 concentrations each with 3 folds dilution starting from 20 μg/ml and 20 μl of which were added directly to the cells in 20 μl. Antibodies were allowed for binding to the cell surface for 2h inside the incubator (37°) C. and the surface bound antibodies were fixed for 15 min at RT by directly adding 30 ul of 10% Formaldehyde (04018-1, Polysciences). Afterwards residual Formaldehyde was removed by washing the cells twice with PBS and the primary antibodies were stained with secondary antibodies (Alexa Fluor 488 goat anti-human IgG, Invitrogen, A11013) complemented with Hoechst 33342 (H3570, ThermoFisher) and HCS CellMask™ Deep Red Stain (ThermoFisher, H32721) in PBS for 1h at RT. After removing unbound antibodies and other dyes by washing the cells 3 times with PBS cells were imaged on the CellVoyager 7000 (Yokogawa, Tokyo, Japan) using a 40×/0.95 objective. Of each well, 9 fields were imaged. Image analysis was performed with Acapella (PerkinElmer, Waltham, MA, USA) and the results stored in Phaedra (OpenAnalytics, Antwerp, Belgium). Data analysis was done in R (www.r-project.org).
The data was then fitted using the four-parameter logistic using least-squares regression, keeping the lower boundary fixed at 0.

Assay [12] concerns the target T11, human MSLN on the cell surface. Kind of assay: binding to H838 cells with and without 100 nM recombinant shed MSLN (MSNW11); the two curves lie on each other.
Excerpt: as §2

Assay [13] addresses T8, MSNW10, recombinant full length human …. The assay is described as follows: SPR, additional experiments.
In assay [14] the target is T1, 12 AA stub region peptide LVLDLSMQEALS
The assay is described as follows: SPR, mAb captured, peptide injected. The procedure:
as §1

Assay [15] deals with T10, 8 AA stub (a.a. 296-303 of SEQ ID NO: …). The assay is described as follows: SPR, mAb captured, peptide injected. The procedure: as §1
For assay [16], the target named is T12, CD3 epsilon on human T-cells (human, UniProt P07766 23-207). Kind of assay: cell-based or functional assay.
Assay [17] concerns the target T13, MSLN with Met593Val on cells homozygous for SNP rs1135210 (SNP G|G) (human, UniProt Q13421 296-598).
T13 construct: also called homozygous SNP-positive cells; BxPC3, NCI-H322
Kind of assay: binding to homozygous SNP-positive cells.

Assay [18] deals with T12, CD3 epsilon on human T-cells. The assay is described as follows: cell-based or functional assay. The source holds these as a separate data set.
For assay [19] the target is unchanged. Kind of assay: T-cell binding assay, FIG. 15.
Assay [20] has as its target T11, human MSLN on the cell surface. The assay is described as follows: flow cytometry (MFI PE) on OVCAR-8 cells.

T12 sequence (P07766 23-207 limits assumed): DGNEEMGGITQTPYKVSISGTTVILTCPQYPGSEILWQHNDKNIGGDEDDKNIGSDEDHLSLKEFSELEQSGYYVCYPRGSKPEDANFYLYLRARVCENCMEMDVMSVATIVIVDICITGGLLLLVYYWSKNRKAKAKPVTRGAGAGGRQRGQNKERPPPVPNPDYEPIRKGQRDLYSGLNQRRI
T9 sequence (Q13421 other isoform, or with tags, fused parts or gaps limits assumed): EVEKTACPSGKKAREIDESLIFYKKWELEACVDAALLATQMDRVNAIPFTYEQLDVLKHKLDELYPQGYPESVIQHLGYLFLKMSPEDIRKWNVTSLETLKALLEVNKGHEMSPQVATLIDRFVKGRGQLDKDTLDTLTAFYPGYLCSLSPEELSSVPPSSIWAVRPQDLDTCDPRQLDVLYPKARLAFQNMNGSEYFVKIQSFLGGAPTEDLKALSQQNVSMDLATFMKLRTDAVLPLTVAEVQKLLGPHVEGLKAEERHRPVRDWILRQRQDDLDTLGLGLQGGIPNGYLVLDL
T11 sequence (Q13421 other isoform, or with tags, fused parts or gaps limits assumed): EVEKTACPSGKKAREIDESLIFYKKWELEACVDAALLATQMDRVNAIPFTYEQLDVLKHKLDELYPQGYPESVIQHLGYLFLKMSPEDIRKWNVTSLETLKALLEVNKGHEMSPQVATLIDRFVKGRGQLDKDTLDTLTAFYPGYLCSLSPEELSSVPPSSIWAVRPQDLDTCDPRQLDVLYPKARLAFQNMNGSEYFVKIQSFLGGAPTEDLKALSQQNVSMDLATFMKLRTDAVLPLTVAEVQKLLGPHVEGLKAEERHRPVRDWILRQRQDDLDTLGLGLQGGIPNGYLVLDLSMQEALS
T13 sequence (Q13421 other isoform, or with tags, fused parts or gaps M593V M593V limits assumed): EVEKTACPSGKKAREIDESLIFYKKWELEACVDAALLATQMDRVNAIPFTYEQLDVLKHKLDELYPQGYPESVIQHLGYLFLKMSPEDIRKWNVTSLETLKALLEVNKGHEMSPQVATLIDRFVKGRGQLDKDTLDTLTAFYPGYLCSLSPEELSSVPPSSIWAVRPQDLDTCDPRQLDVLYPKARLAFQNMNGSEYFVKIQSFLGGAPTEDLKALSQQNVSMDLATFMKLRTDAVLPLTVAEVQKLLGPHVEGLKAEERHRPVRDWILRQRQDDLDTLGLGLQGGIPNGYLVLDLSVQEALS

B1: MSNB124 (antibody, V domains shown)
VH: QVQLQQSGPGLVKPSQTLSLTCAISGDSVSSNSVAWHWIRQSPSRGLEWLGRTYHRSKWYNDYAVSVKSRITINPDTSKNQFSLQLNSVTPEDTAVYYCARQILGALDYWGQGTLVTVSS
VL: DIVMTQTPLSLPVTPGEPASISCRSSQSLQFGNGNYLDWYLQKPGQSPQLLIYLGSNRASGVPDRFSGSGSGTDFTLKISRVEAEDVGVYYCMQVLQIPFTFGPGTKVDIK
notes: mAb
As a reminder, the Kd is the equilibrium constant for the complex coming apart. One may read the IC50 as the point on the concentration scale where inhibition reaches its midpoint. Usually EC50 (read off the curve) stands for the midpoint of the concentration-response curve. Regarding B1, the binding result in [1] is “binds”; in assay [2] it was “binds”; in assay [4], “no binding (tested: 100 nM)”; in assay [5], “no binding (tested: 100 nM)”; in assay [6] it was “no binding (tested: 1000 nM)”; in assay [7] it was “no binding (tested: 1000 nM)”. The binding result is given as “no binding (tested: 100 nM)” in assay [9] and “no binding” in assay [10]. In addition, the results for the dissociation constant (Kd) in [3] and in assay [8] were 14 nM and 6.4 nM, respectively. Besides, in assay [11], the IC50 came out at 0.0735 µg/mL. In assay [11], the “Maximum Value (arbitrary units)” value amounted to 1.46e+07 arbitrary units. In addition, the concentration giving a half-maximal response (EC50 (read off the curve)) in [12] is about 400 pM.

B2: MSLNB591 (antibody, V domains shown)
VH: QVQLQQSGPGLVKPSQTLSLTCGISGDSVSSSSVAWNWIRQSPSRGLEWLGRTYYRSKWYNDYAISVRSRVTINPDTSKNQFSLQLNSVTPEDTAVYYCSRGVVGALDYWGQGTLVTVSS
VL: DIVMTQSPLSLTVTPGEPASISCRSSQSLLFTNGYNSLDWYLQKPGQSPQFLIYLVSNRASGVPDRFSGSGSGTDFTLKISRVEAEDVGVYYCMQALRTPYTFGQGTKVDIK
notes: mAb; also called MSNB591
Regarding B2, the Kd in assay [13] was determined as 0.3 nM; in [2], 0.563 nM; in assay [3], 1.08 nM; in [14], 2.04 nM. For the same molecule, the binding result was “no binding (tested: 100 nM)” in assay [4]; “no binding (tested: 100 nM)” in assay [5]; “no binding (tested: 1000 nM)” in assay [6]; “no binding (tested: 1000 nM)” in assay [15]; “no binding (tested: 1000 nM)” in assay [7]; “no binding (tested: 100 nM)” in [9].

B3: MNC3B55 (bispecific antibody)
scFv: EVQLVESGGGLVKPGGSLRLSCAASGFTFSRYNMNWVRQAPGKGLEWVSSISTSSNYIYYADSVKGRFTFSRDNAKNSLDLQMSGLRAEDTAIYYCTRGWGPFDYWGQGTLVTVSSGGSEGKSSGSGSESKSTGGSDIQMTQSPSSLSASVGDRVTITCRARQSIGTAIHWYQQKPGKAPKLLIKYASESISGVPSRFSGSGSGTDFTLTISSLQPEDFATYYCQQSGSWPYTFGQGTKLEIK
VH: QVQLVESGPGQVKPSQTLSLTCAISGDSVSSNSAAWNWIRQSPSRGLEWLGRTYYRSKWYNDYAVSVKSRITINPDTSKNQFSLQLNSVTPEDTAVYYCARRDYSSGGFDYWGQGTTVTVSS
VL: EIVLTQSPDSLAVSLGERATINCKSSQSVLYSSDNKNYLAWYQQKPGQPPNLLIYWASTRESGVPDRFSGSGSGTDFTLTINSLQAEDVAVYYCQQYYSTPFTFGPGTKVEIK
For the molecule B3, the “cytotoxicity EC50, NCI-H838 cells, pan T-cells 5:1 E:T, 48 hours” value in [16] worked out at 0.027 nM.

B4: MNC3B130 (bispecific antibody)
scFv: DIQMTQSPSSLSASVGDRVTITCRARQSIGTAIHWYQQKPGKAPKLLIKYASESISGVPSRFSGSGSGTDFTLTISSLQPEDFATYYCQQSGSWPYTFGQGTKLEIKGGSEGKSSGSGSESKSTGGSEVQLVESGGGLVKPGGSLRLSCAASGFTFSRYNMNWVRQAPGKGLEWVSSISTSSNYIYYADSVKGRFTFSRDNAKNSLDLQMSGLRAEDTAIYYCTRGWGPFDYWGQGTLVTVSS
VH: B3 VH
VL: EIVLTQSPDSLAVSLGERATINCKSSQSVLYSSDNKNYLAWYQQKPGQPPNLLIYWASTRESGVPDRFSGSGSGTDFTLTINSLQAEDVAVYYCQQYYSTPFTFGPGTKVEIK
notes: MSNB457 Fab x CD3W245 LH scFv; Fc chain 1 T350V/L351Y/F405A/Y407V, Fc chain 2 T350V/T366L/K392/T394W; also called mrMSLN-MSNB457 x W245LH alternative heterodimerization scaffold
Consider B4, for which the “cytotoxicity EC50, NCI-H838 cells, pan T-cells 5:1 E:T, 48 hours” value in assay [16] came to 0.15 nM. The binding result in [17] was “no binding”.

B5: MNC3B193 (bispecific antibody)
scFv: B4 scFv
VH: B3 VH
VL: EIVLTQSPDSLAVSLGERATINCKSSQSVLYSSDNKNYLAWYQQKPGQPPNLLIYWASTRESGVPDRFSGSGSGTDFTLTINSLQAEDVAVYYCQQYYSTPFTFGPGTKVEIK
notes: Bipod: MSNB457 Fab x CD3W245 LH scFv-Fc; also called CD3W245 LH containing Bipod
In general, EC50 refers to the concentration at which the effect is half-maximal. A high value points to lower potency in that assay. On to B5, for which, in [18], the “AC90 [nM], cytotoxicity, 1:1 E:T, 72 hours” value was 0.25 nM; the “Max. Activity, cytotoxicity, 1:1 E:T, 72 hours” value was 91%; the “qAC50 [nM], cytotoxicity, 1:1 E:T, 72 hours” value is 0.1 nM. Further, a half-maximal effect in assay [19] (EC50) was put at 46 nM. Moreover, the concentration for a half-maximal effect (EC50 (read off the curve)) in assay [20] is about 8 nM.

B6: MSLNB569 (antibody, V domains shown)
VH: QVQLQQSGPGLVKPSQTLSLTCAISGDSVSSTRAAWNWIRQSPSRGLEWLGRTYYRSKWYNDYTVSVKSRITINPDTSKNQFSLHLNSVTPEDSAVYFCARGNVGRVDFWGQGTLVTVSS
VL: EIVMTQSPLSLPVTPGEPASISCRSSQSLLHSDGYNYLDWYLQKPGQSPQLLIYLGSNRASGVPDRFSGSGSDTDFTLKISRVEAEDVGVYYCMQGLRTPLTFGPGTKVDIK
notes: mAb; also called MSLNB569.001; MSNB569
For B6, the dissociation constant (Kd) in assay [13] was determined as 3.4 nM; in assay [2] it was 1.99 nM; in assay [3], 5.99 nM; in [14], 4.06 nM. The binding result in assay [4] is given as “no binding (tested: 100 nM)”; in assay [5], “no binding (tested: 100 nM)”; in assay [6] it was “no binding (tested: 1000 nM)”; in [15] it was “no binding (tested: 1000 nM)”; in [7], “no binding (tested: 1000 nM)”; in assay [9], “no binding (tested: 100 nM)”. In [11], inhibition was half-maximal at 0.166 µg/mL (IC50). Further, the “Maximum Value (arbitrary units)” value in [11] was 1.6e+07 arbitrary units.

For the origin of these results see patent US20240166737A1 (Janssen / Centocor, published 2024).
